Laboratory results taken from publication PMC8784325, “The ubiquitin-binding domain of DNA polymerase η directly binds to DNA clamp PCNA and regulates translesion DNA synthesis” (The Journal of Biological Chemistry, 2021).

Tests used:
[1] = tested on: rad30Δ S. cerevisiae strain; test: UV sensitivity complementation (spot assay), rad30Δ strain; assay type: cell-based, Saccharomyces cerevisiae; settings: ADH1 promoter, UV 16–32 J/m^2, 30 °C, 3 days
Experimental: Figure 1 Identification of PCNA interaction region in CaPolη.A, amino acid alignment between Ca- and Sc-Polη was carried out by EMBOSS Needle; identical amino acids are marked by ∗ and similar amino acids were marked by: symbols. All the important motifs and domains are underlined, including Motif I to V, PAD, ubz and pip. Putative pip sequences were labeled as Seq-1 through Seq-4 in the C-terminal domain. […] C, putative pip sequences of CaPolη were compared with the already identified pip motifs of other Y-family pols. D, line diagram showing various domains of Polηs and a C-terminal deletant CaPolη (1–512). E, determination of binding kinetics of wild type or truncated CaPolƞ (1–512) with CaPCNA by ITC. […] F, UV sensitivities of S. cerevisiae strains. Cells of genomic rad30Δ and rad30Δrev3Δ deletion S. cerevisiae strains harboring YEP-ADH1p or YEP-ADH1p-ScPolη or YEP-ADH1p-CaPolη or YEP-ADH1p-CaPolη (1–512) or YEP-ADH1p-CaPolη F485A,L486A plasmids from an overnight SD-Ura culture were serially diluted and spotted onto SD-Ura plates. […]
Figure 2 Ubz domain of CaPolη is essential TLS activity.A, a line diagram showing the deletion and site-directed mutations in the ubz domain of CaPolη. […] Following UV irradiation, plates were incubated in the dark, and colonies were counted after 3 to 5 days. […]

[2] = tested on: rad30Δ S. cerevisiae strain; settings: S. cerevisiae strains; cited from earlier work

B1: ScPolη F627A,F628A (protein, UniProt Q04049 1-632, looked up, variant F627A F628A)
DNA polymerase eta: MSKFTWKELIQLGSPSKAYESSLACIAHIDMNAFFAQVEQMRCGLSKEDPVVCVQWNSIIAVSYAARKYGISRMDTIQEALKKCSNLIPIHTAVFKKGEDFWQYHDGCGSWVQDPAKQISVEDHKVSLEPYRRESRKALKIFKSACDLVERASIDEVFLDLGRICFNMLMFDNEYELTGDLKLKDALSNIREAFIGGNYDINSHLPLIPEKIKSLKFEGDVFNPEGRDLITDWDDVILALGSQVCKGIRDSIKDILGYTTSCGLSSTKNVCKLASNYKKPDAQTIVKNDCLLDFLDCGKFEITSFWTLGGVLGKELIDVLDLPHENSIKHIRETWPDNAGQLKEFLDAKVKQSDYDRSTSNIDPLKTADLAEKLFKLSRGRYGLPLSSRPVVKSMMSNKNLRGKSCNSIVDCISWLEVFCAELTSRIQDLEQEYNKIVIPRTVSISLKTKSYEVYRKSGPVAYKGINFQSHELLKVGIKFVTDLDIKGKNKSYYPLTKLSMTITNFDIIDLQKTVVDMFGNQVHTFKSSAGKEDEEKTTSSKADEKTPKLECCKYQVTFTDQKALQEHADYHLALKLSEGLNGAEESSKNLSFGEKRLLFSRKRPNSQHTATPQKKQVTSSKNILSAATRKK
UV sensitivity / complementation (in words) [1]: abrogated its TLS function and displayed equal UV sensitivity with rad30Δ strain
UV sensitivity and UV-induced mutagenesis (in words) [2]: enhanced UV sensitivity and UV-induced mutagenesis
